Measured values taken from article PMC9604145.

Molecular target: Su(H)^wt-myc (Suppressor of Hairless, wildtype, pcDNA3.1) (D. melanogaster) (UniProt P28159)
UniProt P28159, sequence (P28159 whole entry): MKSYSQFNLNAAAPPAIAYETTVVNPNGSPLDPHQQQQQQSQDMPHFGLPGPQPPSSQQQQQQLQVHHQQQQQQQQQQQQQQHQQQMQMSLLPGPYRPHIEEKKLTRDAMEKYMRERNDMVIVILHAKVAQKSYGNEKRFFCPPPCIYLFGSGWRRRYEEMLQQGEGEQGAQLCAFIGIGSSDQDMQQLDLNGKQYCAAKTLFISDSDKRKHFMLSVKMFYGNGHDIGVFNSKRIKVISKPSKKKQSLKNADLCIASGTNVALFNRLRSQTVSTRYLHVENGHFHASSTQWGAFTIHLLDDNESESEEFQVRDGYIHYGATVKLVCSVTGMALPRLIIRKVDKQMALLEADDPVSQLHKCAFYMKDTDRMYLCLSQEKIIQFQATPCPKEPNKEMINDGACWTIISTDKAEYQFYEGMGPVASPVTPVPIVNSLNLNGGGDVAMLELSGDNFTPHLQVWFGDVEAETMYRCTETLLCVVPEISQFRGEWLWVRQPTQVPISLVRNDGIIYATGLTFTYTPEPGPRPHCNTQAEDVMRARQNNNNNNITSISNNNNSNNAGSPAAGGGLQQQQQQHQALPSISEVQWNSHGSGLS

ICN^RAMANK (pcDNA-ICN-RAMANK) (domain or fragment)
Su(H)^wt-myc protein level (Western blot, relative to beta-tubulin) 0-6 h after cycloheximide in HeLa RBPJ^KO cells co-expressing ICN^RAMANK (% of the induced protein): 70
